# Data published in US20150376286A1 (Amgen, published 2015).
# T1: cynomolgus CGRP receptor (cynoCRLR + cynoRAMP1) (cynomolgus monkey)
# T1 chain 1: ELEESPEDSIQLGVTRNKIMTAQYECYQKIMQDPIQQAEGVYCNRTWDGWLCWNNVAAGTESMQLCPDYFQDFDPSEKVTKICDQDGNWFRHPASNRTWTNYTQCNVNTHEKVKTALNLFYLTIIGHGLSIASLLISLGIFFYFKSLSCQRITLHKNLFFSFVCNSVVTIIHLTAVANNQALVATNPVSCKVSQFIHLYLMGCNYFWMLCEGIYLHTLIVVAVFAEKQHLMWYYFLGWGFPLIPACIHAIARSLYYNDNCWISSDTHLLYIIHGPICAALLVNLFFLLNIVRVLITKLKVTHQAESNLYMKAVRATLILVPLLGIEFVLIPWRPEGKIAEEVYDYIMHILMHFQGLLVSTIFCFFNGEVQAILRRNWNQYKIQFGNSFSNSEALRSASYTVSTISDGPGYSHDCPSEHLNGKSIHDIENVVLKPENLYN
# T1 chain 2: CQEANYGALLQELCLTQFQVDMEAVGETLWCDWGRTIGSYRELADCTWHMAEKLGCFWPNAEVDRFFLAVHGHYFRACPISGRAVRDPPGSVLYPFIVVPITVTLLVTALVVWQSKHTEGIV
# B1: 13H2 (antibody, human IgG2, kappa, V domains shown)
# VH: EVQLVESGGGLVKPGGSLRLSCAASGYTFSTYSMNWVRQAPGKGLEWVSSISSSSSYRYYADSVKGRFTISRDNAKNSLYLQMSSLRAEDTAVYYCAREGVSGSSPYSISWYDYYYGMDVWGQGTTVTVSS
# VL: DIQMTQSPSSLSASVGDRVTITCRASQGIRKDLGWYQQKPGKAPKRLIYGASSLQSGVPSRFSGSGSGTEFTLTISSLQPEDFATYYCLQYNSFPWTFGQGTKVEIKR
# notes: also called 13H2.2
# B2: 2E7 (antibody, human IgG2, kappa, V domains shown)
# VH: EVQLLESGGGLVQPGESLRLSCAASGFTFSSYAMSWVRQAPGKGLEWVSAISGSGGRTYYADSVKGRFTISRDNSKNTLYLQMNSLRAEDTAVYYCAKDQREVGPYSSGWYDYYYGMDVWGQGTTVTVSS
# VL: DIQMTQSPSSLSASVGDRVTITCRASQGIRNDLGWFQQKPGKAPKRLIYAASSLQSGVPSRFSGSGSGTEFTLTISSLQPEDLATYYCLQYNIYPWTFGQGTKVEIKR
# notes: also called 02E7; 02E7.2
# B3: 10E4 (antibody, human IgG2, lambda, V domains shown)
# VH: QVQLVQSGAEVKKPGASVKVSCKASGYTFTDYYMYWVRQAPGQGLEWMGWISPNSGGTNYAQKFQGRVTMTRDTSISTAYMELSRLRSDDTAVYYCVRGGYSGYAGLYSHYYGMDVWGQGTTVTVSS
# VL: not shown
# B4: 1E11 (antibody, human IgG2, lambda, V domains shown)
# VH: QVQLVESGGGVVQPGRSLRLSCAASGFTFSSFGMHWVRQAPGKGLEWVAVISFDGSIKYSVDSVKGRFTISRDNSKNTLFLQMNSLRAEDTAVYYCARDRLNYYDSSGYYHYKYYGMAVWGQGTTVTVSS
# VL: QSVLTQPPSVSEAPGQKVTISCSGSSSNIGNNYVSWYQQLPGTAPKLLIYDNNKRPSGIPDRFSGSKSGTSATLGITGLQTGDEADYYCGTWDSRLSAVVFGGGTKLTVLG
# notes: also called 01E11; 01E11.2
# B5: 9D4 (antibody, human IgG2, lambda, V domains shown)
# VH: QVQLVESGGGVVQPGRSLRLSCAASGFTFSSFGMHWVRQAPGKGLEWVAVISFDGSIKYSVDSVKGRFTISRDNSKNTLFLQMNSLRAEDTAVYYCARDRLNYYDSSGYYHYKYYGMAVWGQGTTVTVSS
# VL: QSVLTQPPSVSAAPGQKVTISCSGSSSNIGNNYVSWYQQFPGTAPKLLIYDNNKRPSGIPDRFSGSKSGTSATLGITGLQTGDEADYYCGTWDSRLSAVVFGGGTKLTVLG
# notes: also called 09D4; 09D4.2
# B6: 4H6 (antibody, human IgG2, kappa, V domains shown)
# VH: EVQLVESGGGLVKPGRSLRLSCTASGFTFGDYAMSWFRQAPGKGLEWIGFIRSRAYGGTPEYAASVKGRFTISRDDSKTIAYLQMNSLKTEDTAVYFCARGRGIAARWDYWGQGTLVTVSS
# VL: not shown
# notes: also called 04H6; 04H6.1
# B7: 5F5 (antibody, human IgG2, kappa, V domains shown)
# VH: QVQLVESGGGVVQPGRSLRLSCAASGFTFSSYGMHWVRQAPGKGLEWVAVISYDGSHESYADSVKGRFTISRDISKNTLYLQMNSLRAEDTAVYFCARERKRVTMSTLYYYFYYGMDVWGQGTTVTVSS
# VL: DIILTQTPLSLSVTPGQPASISCKSSQSLLHSDGKTYLYWYLQKPGQPPQLLIYEVSNRFSGEPDRFSGSGSGTDFTLKISRVEAEDVGTYYCMQSFPLPLTFGGGTKVEIKR
# notes: also called 05F5; 05F5.1
# B8: 3C8 (antibody, human IgG2, kappa, V domains shown)
# VH: QVQLVESGGGVVQPGRSLRLSCAASGFTFSSYGMHWVRQAPGKGLEWVAVISYDGSHESYADSVKGRFTISRDISKNTLYLQMNSLRAEDTAVYFCARERKRVTMSTLYYYFYYGMDVWGQGTTVTVSS
# VL: DIILAQTPLSLSVTPGQPASISCKSSQSLLHSAGKTYLYWYLQKPGQPPQLLIYEVSNRFSGVPDRFSGSGSGTDFTLKISRVEAEDVGIYYCMQSFPLPLTFGGGTKVEIKR
# B9: 12E8 (antibody, human IgG2, kappa, V domains shown)
# VH: QVQLVESGGGVVQPGRSLRLSCAASGFTFSSYGMHWVRQAPGKGLEWVAVISYDGSHESYADSVKGRFTISRDISKNTLYLQMNSLRAEDTAVYFCARERKRVTMSTLYYYFYYGMDVWGQGTTVTVSS
# VL: DITLTQTPLSLSVSPGQPASISCKSSQSLLHSDGRNYLYWYLQKPGQPPQLLIYEVSNRFSGLPDRFSGSGSGTDFTLKISRVEAEDVGIYYCMQSFPLPLTFGGGTKVEIKR
# notes: also called 12E8.2
# How the values were obtained:
# [1] = biological target: T2, human CGRP receptor (CRLR + RAMP1) (human, UniProt Q16602 23-461; O60894 27-148); test: cell-based or functional assay
# [2] = biological target: T1, cynomolgus CGRP receptor (cynoCRLR + …); test: cell-based or functional assay
# rat CGRP receptor = rat CGRP receptor (rat, UniProt Q63118 24-464; Q9JJ74 27-148); test: cell-based or functional assay
# [3] = biological target: human amylin AMY1 receptor (hCTR + hRAMP1) (human, UniProt P30988 25-474); test: cell-based or functional assay
# [4] = biological target: human adrenomedullin receptor 1 (hCRLR + hRAMP2) (human, UniProt O60895 43-175); test: cell-based or functional assay
# [5] = biological target: human adrenomedullin receptor 2 (hCRLR + hRAMP3) (human, UniProt O60896 24-148); test: cell-based or functional assay
# [6] = biological target: T2, human CGRP receptor (CRLR + RAMP1); test: cell-based or functional assay; remark: listed apart in the source
# [7] = biological target: T2, human CGRP receptor (CRLR + RAMP1); test: 125I-CGRP competition binding, HTB-10 cell membranes
# Procedure: (§1) The plates were incubated at room temperature for 2 hours with shaking at 60 rpm, and then the contents of each well were filtered over 0.5% polyethyleneimine (PEI)-treated (for at least one hour) GF/C 96-well filter plates. The GF/C filter plates were washed six times with ice-cold 50 mM Tris, pH 7.5 and dried in an oven at 55° C. for 1 hour. The bottoms of the GF/C plates were then sealed. 40 μl Microscint™ 20 was added to each well, the tops of the GF/C plates were sealed with TopSeal™-A (a press-on adhesive sealing film), and the GF/C plates were counted with TopCount NXT (Packard). The data were analyzed using Prizm (GraphPad Software Inc.)
# [8] = biological target: T2, human CGRP receptor (CRLR + RAMP1); test: radioligand competition: 125I-CGRP binding to human CGRP receptor on HTB-10 cell membranes, antibody as competitor
# Procedure: as §1
# [9] = biological target: T2, human CGRP receptor (CRLR + RAMP1); test: FACS on AM-1 CHO huCGRP R cells, KinExA n-curve analysis
# Procedure: Briefly, AM-1 CHO huCGRP R-expressing cells, prepared as described above, were plated in 96-well plates at densities of 16,000 or 160,000 cells per well in DMEM medium containing 10% FBS, NEAA, PS, L Glut, NaPyr and 0.05% sodium azide. […] After an overnight incubation at 4° C. in a total volume of 120 μl, on a plate shaker, the cells were washed 2× with PBS+2% FBS, centrifuging and discarding supernatant each time. 100 μl/well of G anti-Hu Fc Cy5 (5 μg/mL; Jackson ImmunoResearch Laboratories Inc., West Grove, Pa., USA) containing 7AAD (5 μl/well) was then added and incubated at 4° C. for 40 min. The cells were washed 2× with PBS+2% FBS, centrifuging and discarding the supernatant each time. 100 μl PBS+2% FBS buffer was then added and analyzed by FACS to determined the binding geomean. The Kd was calculated using KinExA software by taking the negative geomean at each antibody concentration as the amount of free Ab present Rathanaswami, et al., Biochemical and Biophysical Research Communications 334 (2005) 1004-1013.
binder,measurement,setting,value
B1,cAMP assay IC50,[1],1.95 nM
same,cAMP assay IC50,[2],8.41 nM
same,cAMP assay IC50,rat CGRP receptor,> 1000 nM
same,cAMP assay IC50,[3],> 1000 nM
same,cAMP assay IC50,[4],> 1000 nM
same,cAMP assay IC50,[5],> 1000 nM
same,IC50 (read off the curve),[6],~6 nM
same,Ki,[7],0.033 nM
same,IC50 (read off the curve),[8],~100 pM
B2,cAMP assay IC50,[1],6.3 nM
same,cAMP assay IC50,[2],5.51 nM
same,cAMP assay IC50,rat CGRP receptor,> 1000 nM
same,cAMP assay IC50,[3],> 1000 nM
same,cAMP assay IC50,[4],> 1000 nM
same,cAMP assay IC50,[5],> 1000 nM
same,Ki,[7],0.117 nM
same,Kd,[9],1.5 nM
B3,cAMP assay IC50,[2],3.23 nM
same,cAMP assay IC50,rat CGRP receptor,> 1000 nM
same,cAMP assay IC50,[3],> 1000 nM
same,cAMP assay IC50,[4],> 1000 nM
same,cAMP assay IC50,[5],> 1000 nM
B4,cAMP assay IC50,[1],1.77 nM
same,cAMP assay IC50,[2],2.79 nM
same,cAMP assay IC50,rat CGRP receptor,> 1000 nM
same,cAMP assay IC50,[3],> 1000 nM
same,cAMP assay IC50,[4],> 1000 nM
same,cAMP assay IC50,[5],> 1000 nM
same,IC50 (read off the curve),[6],~1 nM
same,Ki,[7],0.03 nM
same,IC50 (read off the curve),[8],~30 pM
B5,cAMP assay IC50,[1],1.4 nM
same,cAMP assay IC50,[2],2.46 nM
same,cAMP assay IC50,rat CGRP receptor,> 1000 nM
same,cAMP assay IC50,[3],> 1000 nM
same,cAMP assay IC50,[4],> 1000 nM
same,cAMP assay IC50,[5],> 1000 nM
same,Ki,[7],0.023 nM
same,Kd,[9],2.5 nM
B6,cAMP assay IC50,[1],3.78 nM
same,cAMP assay IC50,[2],5.59 nM
same,cAMP assay IC50,rat CGRP receptor,> 1000 nM
same,cAMP assay IC50,[3],> 1000 nM
same,cAMP assay IC50,[4],> 1000 nM
same,cAMP assay IC50,[5],> 1000 nM
same,Ki,[7],0.052 nM
same,Kd,[9],2.4 nM
B7,cAMP assay IC50,[1],4.79 nM
same,cAMP assay IC50,[2],4.78 nM
same,cAMP assay IC50,rat CGRP receptor,> 1000 nM
same,cAMP assay IC50,[3],> 1000 nM
same,cAMP assay IC50,[4],> 1000 nM
same,cAMP assay IC50,[5],> 1000 nM
same,Ki,[7],0.147 nM
B8,cAMP assay IC50,[2],5.32 nM
same,cAMP assay IC50,rat CGRP receptor,> 1000 nM
same,cAMP assay IC50,[3],> 1000 nM
same,cAMP assay IC50,[4],> 1000 nM
same,cAMP assay IC50,[5],> 1000 nM
B9,cAMP assay IC50,[1],2.93 nM
same,cAMP assay IC50,[2],4.13 nM
same,cAMP assay IC50,rat CGRP receptor,> 1000 nM
same,cAMP assay IC50,[3],> 1000 nM
same,cAMP assay IC50,[4],> 1000 nM
same,cAMP assay IC50,[5],> 1000 nM
same,Ki,[7],0.097 nM
same,Kd,[9],2.3 nM
